Laboratory results published in publication PMC9352680, “A comprehensive thermodynamic model for RNA binding by the Saccharomyces cerevisiae Pumilio protein PUF4”.

T1: PUF4 RNA-binding domain (Saccharomyces cerevisiae, UniProt P25339 537-888)
T1 sequence: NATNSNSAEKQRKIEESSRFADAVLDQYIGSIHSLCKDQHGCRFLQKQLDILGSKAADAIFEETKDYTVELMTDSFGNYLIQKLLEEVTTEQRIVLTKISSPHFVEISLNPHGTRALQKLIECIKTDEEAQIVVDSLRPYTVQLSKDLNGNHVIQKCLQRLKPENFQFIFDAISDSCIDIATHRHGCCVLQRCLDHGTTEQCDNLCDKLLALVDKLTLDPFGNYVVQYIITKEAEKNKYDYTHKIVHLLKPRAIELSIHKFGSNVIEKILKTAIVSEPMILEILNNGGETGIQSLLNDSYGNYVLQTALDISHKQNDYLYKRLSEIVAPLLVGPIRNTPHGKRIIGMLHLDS


The binders below were run against T1, PUF4 RNA-binding domain (assay: Mg; RNA-MaP; 20 mM Na-HEPES pH 7.4, 30 mM KOAc, 0.75 mM MgCl2, 0.1% Tween-20, 5% glycerol, 0.1 mg/mL BSA, 2 mM DTT; 25 C; 0.0125-409.6 nM protein). Details: tags: N-His6-TEV cleaved; C-SNAP kept, Cy3B-labelled; label: tethered on chip by stalled RNA polymerase.

Binder | Kd [nM]
UCUCUUUGUAUUUAUAUCUCUU (ssRNA) [Ib_S1_P5E.1_K5.1_C5.1_H5.1_A5.1_[A7T]_F5.1_[T8A]_T5.1] | 5.27
Id_ii_S2_P5E.3_K5.2_C5.2_[T-1C]_H5.2_A5.1_F5.1_T5.2_[T11C]_[A12T] (ssRNA) RNA: UUUGAUUAAUAUGAUAUCGUUCUUUCUCCUAUAUUAUUACUUUCUUUCUCGAUAUCAUAUUAAUCUUU | 57.9
Id_ii_S2_P5E.3_K5.2_C5.2_[T-1A]_H5.2_A5.1_F5.1_T5.2_[T11C]_[A12C] (ssRNA) RNA: UUUGAUUAAUAUGAUAUCGUUCUUUCUCAUAUAUUAUUACCUUCUUUCUCGAUAUCAUAUUAAUCUUU | 69.4
Id_ii_S2_P5E.3_K5.2_C5.2_[T-1A]_H5.2_A5.1_F5.1_T5.2_[T11G]_[A12C] (ssRNA) RNA: UUUGAUUAAUAUGAUAUCGUUCUUUCUCAUAUAUUAUUAGCUUCUUUCUCGAUAUCAUAUUAAUCUUU | 112
Id_ii_S2_P5E.4_K5.3_C5.2_[C-2G]_H5.3_A5.1_F5.1_T5.2_[T11C]_[A12T] (ssRNA) RNA: UUUGAUUAAUAUGAUAUCGUUCUUUCUGUACACUUAUUACUUUCUUUCUCGAUAUCAUAUUAAUCUUU | 11
Id_ii_S2_P5E.3_K5.2_C5.2_[T-1A]_H5.2_A5.1_F5.1_T5.2_[T11A]_[A12T] (ssRNA) RNA: UUUGAUUAAUAUGAUAUCGUUCUUUCUCAUAUAUUAUUAAUUUCUUUCUCGAUAUCAUAUUAAUCUUU | 131
Id_ii_S2_P5E.4_K5.3_C5.2_[C-2G]_[T-1C]_H5.3_A5.1_F5.1_T5.2_[A12T] (ssRNA) RNA: UUUGAUUAAUAUGAUAUCGUUCUUUCUGCACACUUAUUAUUUUCUUUCUCGAUAUCAUAUUAAUCUUU | 341
Id_ii_S2_P5E.3_K5.2_C5.2_H5.2_A5.1_F5.1_T5.2_[T11C]_[A12T] (ssRNA) RNA: UUUGAUUAAUAUGAUAUCGUUCUUUCUCUUAUAUUAUUACUUUCUUUCUCGAUAUCAUAUUAAUCUUU | 77.9
Id_ii_S2_P5E.3_K5.2_C5.2_[T-1A]_H5.2_A5.1_F5.1_T5.2_[T11C]_[A12G] (ssRNA) RNA: UUUGAUUAAUAUGAUAUCGUUCUUUCUCAUAUAUUAUUACGUUCUUUCUCGAUAUCAUAUUAAUCUUU | 372
Id_ii_S2_P5E.3_K5.2_C5.2_[T-1C]_H5.2_A5.1_F5.1_T5.2_[T11A]_[A12C] (ssRNA) RNA: UUUGAUUAAUAUGAUAUCGUUCUUUCUCCUAUAUUAUUAACUUCUUUCUCGAUAUCAUAUUAAUCUUU | 108
Id_ii_S2_P5E.4_K5.3_C5.2_[C-2G]_[T-1C]_H5.3_A5.1_F5.1_T5.2_[T11A] (ssRNA) RNA: UUUGAUUAAUAUGAUAUCGUUCUUUCUGCACACUUAUUAAAUUCUUUCUCGAUAUCAUAUUAAUCUUU | 549
Id_ii_S2_P5E.3_K5.2_C5.2_[T-1C]_H5.2_A5.1_F5.1_T5.2_[T11A]_[A12T] (ssRNA) RNA: UUUGAUUAAUAUGAUAUCGUUCUUUCUCCUAUAUUAUUAAUUUCUUUCUCGAUAUCAUAUUAAUCUUU | 138
Id_ii_S2_P5E.3_K5.2_C5.2_[T-1A]_H5.2_A5.1_F5.1_T5.2_[T11A]_[A12C] (ssRNA) RNA: UUUGAUUAAUAUGAUAUCGUUCUUUCUCAUAUAUUAUUAACUUCUUUCUCGAUAUCAUAUUAAUCUUU | 96.4
Id_ii_S2_P5E.3_K5.2_C5.2_[T-1A]_H5.2_A5.1_F5.1_T5.2_[T11A]_[A12G] (ssRNA) RNA: UUUGAUUAAUAUGAUAUCGUUCUUUCUCAUAUAUUAUUAAGUUCUUUCUCGAUAUCAUAUUAAUCUUU | 1200
Id_ii_S2_P5E.3_K5.2_C5.2_[T-1C]_H5.2_A5.1_F5.1_T5.2_[A12T] (ssRNA) RNA: UUUGAUUAAUAUGAUAUCGUUCUUUCUCCUAUAUUAUUAUUUUCUUUCUCGAUAUCAUAUUAAUCUUU | 79.4
Id_ii_S2_P5E.3_K5.2_C5.2_H5.2_A5.1_F5.1_T5.2_[A12C] (ssRNA) RNA: UUUGAUUAAUAUGAUAUCGUUCUUUCUCUUAUAUUAUUAUCUUCUUUCUCGAUAUCAUAUUAAUCUUU | 65.7
Id_ii_S2_P5E.3_K5.2_C5.2_[T-1A]_H5.2_A5.1_F5.1_T5.2_[T11C] (ssRNA) RNA: UUUGAUUAAUAUGAUAUCGUUCUUUCUCAUAUAUUAUUACAUUCUUUCUCGAUAUCAUAUUAAUCUUU | 166
Id_ii_S2_P5E.4_K5.3_C5.2_[C-2G]_[T-1C]_H5.3_A5.1_F5.1_T5.2_[T11C]_[A12G] (ssRNA) RNA: UUUGAUUAAUAUGAUAUCGUUCUUUCUGCACACUUAUUACGUUCUUUCUCGAUAUCAUAUUAAUCUUU | > 2300
Id_ii_S2_P5E.3_K5.2_C5.2_[T-1A]_H5.2_A5.1_F5.1_T5.2_[A12T] (ssRNA) RNA: UUUGAUUAAUAUGAUAUCGUUCUUUCUCAUAUAUUAUUAUUUUCUUUCUCGAUAUCAUAUUAAUCUUU | 223
Id_ii_S2_P5E.3_K5.2_C5.2_[T-1C]_H5.2_A5.1_F5.1_T5.2_[T11A]_[A12G] (ssRNA) RNA: UUUGAUUAAUAUGAUAUCGUUCUUUCUCCUAUAUUAUUAAGUUCUUUCUCGAUAUCAUAUUAAUCUUU | 887
Id_ii_S2_P5E.3_K5.2_C5.2_H5.2_A5.1_F5.1_T5.2_[T11A]_[A12C] (ssRNA) RNA: UUUGAUUAAUAUGAUAUCGUUCUUUCUCUUAUAUUAUUAACUUCUUUCUCGAUAUCAUAUUAAUCUUU | 230

Binder | Kd [nM]
Id_ii_S2_P5E.3_K5.2_C5.2_H5.2_A5.1_F5.1_T5.2_[T11C]_[A12C] (ssRNA) RNA: UUUGAUUAAUAUGAUAUCGUUCUUUCUCUUAUAUUAUUACCUUCUUUCUCGAUAUCAUAUUAAUCUUU | 92.1
Id_ii_S2_P5E.4_K5.3_C5.2_[C-2G]_[T-1C]_H5.3_A5.1_F5.1_T5.2_[T11C]_[A12T] (ssRNA) RNA: UUUGAUUAAUAUGAUAUCGUUCUUUCUGCACACUUAUUACUUUCUUUCUCGAUAUCAUAUUAAUCUUU | 409
Id_ii_S2_P5E.3_K5.2_C5.2_H5.2_A5.1_F5.1_T5.2_[T11A]_[A12T] (ssRNA) RNA: UUUGAUUAAUAUGAUAUCGUUCUUUCUCUUAUAUUAUUAAUUUCUUUCUCGAUAUCAUAUUAAUCUUU | 234
Id_ii_S2_P5E.3_K5.2_C5.2_[T-1A]_H5.2_A5.1_F5.1_T5.2_[T11C]_[A12T] (ssRNA) RNA: UUUGAUUAAUAUGAUAUCGUUCUUUCUCAUAUAUUAUUACUUUCUUUCUCGAUAUCAUAUUAAUCUUU | 90.7
Id_ii_S2_P5E.3_K5.2_C5.2_[T-1A]_H5.2_A5.1_F5.1_T5.2_[T11A] (ssRNA) RNA: UUUGAUUAAUAUGAUAUCGUUCUUUCUCAUAUAUUAUUAAAUUCUUUCUCGAUAUCAUAUUAAUCUUU | 246
Id_ii_S2_P5E.4_K5.3_C5.2_[C-2G]_H5.3_A5.1_F5.1_T5.2_[T11C]_[A12C] (ssRNA) RNA: UUUGAUUAAUAUGAUAUCGUUCUUUCUGUACACUUAUUACCUUCUUUCUCGAUAUCAUAUUAAUCUUU | 3.03
Id_ii_S2_P5E.4_K5.3_C5.2_[C-2G]_[T-1C]_H5.3_A5.1_F5.1_T5.2_[T11C] (ssRNA) RNA: UUUGAUUAAUAUGAUAUCGUUCUUUCUGCACACUUAUUACAUUCUUUCUCGAUAUCAUAUUAAUCUUU | 729
Id_ii_S2_P5E.3_K5.2_C5.2_H5.2_A5.1_F5.1_T5.2_[A12T] (ssRNA) RNA: UUUGAUUAAUAUGAUAUCGUUCUUUCUCUUAUAUUAUUAUUUUCUUUCUCGAUAUCAUAUUAAUCUUU | 110
Id_ii_S2_P5E.3_K5.2_C5.2_H5.2_A5.1_F5.1_T5.2_[T11G]_[A12C] (ssRNA) RNA: UUUGAUUAAUAUGAUAUCGUUCUUUCUCUUAUAUUAUUAGCUUCUUUCUCGAUAUCAUAUUAAUCUUU | 127
Id_ii_S2_P5E.3_K5.2_C5.2_[T-1C]_H5.2_A5.1_F5.1_T5.2_[T11A] (ssRNA) RNA: UUUGAUUAAUAUGAUAUCGUUCUUUCUCCUAUAUUAUUAAAUUCUUUCUCGAUAUCAUAUUAAUCUUU | 151
Id_ii_S2_P5E.4_K5.3_C5.2_[C-2G]_[T-1C]_H5.3_A5.1_F5.1_T5.2_[T11A]_[A12T] (ssRNA) RNA: UUUGAUUAAUAUGAUAUCGUUCUUUCUGCACACUUAUUAAUUUCUUUCUCGAUAUCAUAUUAAUCUUU | 408
Id_ii_S2_P5E.4_K5.3_C5.2_[C-2G]_H5.3_A5.1_F5.1_T5.2_[T11A]_[A12C] (ssRNA) RNA: UUUGAUUAAUAUGAUAUCGUUCUUUCUGUACACUUAUUAACUUCUUUCUCGAUAUCAUAUUAAUCUUU | 2.19
Id_ii_S2_P5E.4_K5.3_C5.2_[C-2G]_[T-1C]_H5.3_A5.1_F5.1_T5.2_[T11A]_[A12C] (ssRNA) RNA: UUUGAUUAAUAUGAUAUCGUUCUUUCUGCACACUUAUUAACUUCUUUCUCGAUAUCAUAUUAAUCUUU | 451
Id_ii_S2_P5E.3_K5.2_C5.2_H5.2_A5.1_F5.1_T5.2_[T11G]_[A12T] (ssRNA) RNA: UUUGAUUAAUAUGAUAUCGUUCUUUCUCUUAUAUUAUUAGUUUCUUUCUCGAUAUCAUAUUAAUCUUU | 462
Id_ii_S2_P5E.3_K5.2_C5.2_H5.2_A5.1_F5.1_T5.2_[T11C]_[A12G] (ssRNA) RNA: UUUGAUUAAUAUGAUAUCGUUCUUUCUCUUAUAUUAUUACGUUCUUUCUCGAUAUCAUAUUAAUCUUU | 426
Id_ii_S2_P5E.3_K5.2_C5.2_[T-1A]_H5.2_A5.1_F5.1_T5.2_[A12C] (ssRNA) RNA: UUUGAUUAAUAUGAUAUCGUUCUUUCUCAUAUAUUAUUAUCUUCUUUCUCGAUAUCAUAUUAAUCUUU | 151
Id_ii_S2_P5E.4_K5.3_C5.2_[C-2G]_[T-1C]_H5.3_A5.1_F5.1_T5.2_[A12C] (ssRNA) RNA: UUUGAUUAAUAUGAUAUCGUUCUUUCUGCACACUUAUUAUCUUCUUUCUCGAUAUCAUAUUAAUCUUU | 359
Id_ii_S2_P5E.3_K5.2_C5.2_H5.2_A5.1_F5.1_T5.2_[T11C] (ssRNA) RNA: UUUGAUUAAUAUGAUAUCGUUCUUUCUCUUAUAUUAUUACAUUCUUUCUCGAUAUCAUAUUAAUCUUU | 103
UCUCUUUGUAAUAUGAUCUCUU (ssRNA) [Ib_S1_P5E.1_K5.1_C5.1_H5.1_A5.1_[T5A]_F5.1_[T9G]_T5.1] | 22.3
UCUCUUUGUACUAUCAUCUCUU (ssRNA) [Ic_S1_P5E.1_K5.1_C5.1_H5.1_A5.1_[T5C]_F5.1_[T9C]_T5.1] | 17.8
UCUCUUUGUACUAUGAUCUCUU (ssRNA) [Ib_S1_P5E.1_K5.1_C5.1_H5.1_A5.1_[T5C]_F5.1_[T9G]_T5.1] | 13.2
